Test results taken from US20060264616.
Where a chain is given by its changes, count along the chain named. In names and notes the source's numbering stands.

T1: reconstituted tissue factor (Innovin, Dade) and membrane, P13726
T1 chain: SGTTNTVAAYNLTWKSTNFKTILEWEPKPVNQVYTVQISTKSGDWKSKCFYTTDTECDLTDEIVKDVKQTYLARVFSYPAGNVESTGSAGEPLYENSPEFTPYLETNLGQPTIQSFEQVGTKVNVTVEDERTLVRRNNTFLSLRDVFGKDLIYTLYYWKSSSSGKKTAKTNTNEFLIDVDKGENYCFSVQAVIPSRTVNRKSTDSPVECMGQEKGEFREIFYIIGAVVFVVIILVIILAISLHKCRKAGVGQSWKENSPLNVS

B1: factor VII F5K (protein)
chain: ANAKLEELRPGSLERECKEEQCSFEEAREIFKDAERTKLFWISYSDGDQCASSPCQNGGSCKDQLQSYICFCLPAFEGRNCETHKDDQLICVNENGGCEQYCSDHTGTKRSCRCHEGYSLLADGVSCTPTVEYPCGKIPILEKRNASKPQGRIVGGKVCPKGECPWQVLLLVNGAQLCGGTLINTIWVVSAAHCFDKIKNWRNLIAVLGEHDLSEHDGDEQSRRVAQVIIPSTYVPGTTNHDIALLRLHQPVVLTDHVVPLCLPERTFSERTLAFVRFSLVSGWGQLLDRGATALELMVLNVPRLMTQDCLQQSRKVGDSPNITEYMFCAGYSDGSKDSCKGDSGGPHATHYRGTWYLTGIVSWGQGCATVGHFGVYTRVSQYIEWLQKLMRSEPRPGVLLRAPFP
B2: factor VII mutant Q11E33D36 (protein)
chain: B1 chain with K4F, P10Q, K32E, E35D
B3: Factor VII mutant Q11E33F34I35 (protein)
chain: B1 chain with K4F, P10Q, K32E, D33F, A34I

What was measured:
[1] = biological target: reconstituted tissue factor (Innovin, Dade) and membrane (UniProt P13726)
[2] = biological target: T1, reconstituted tissue factor (Innovin, …)

Molecule	activity (competitive assay described in Example 6) [1]	activity in the competitive assay described in Example 6 [2]
Factor VII mutant Q11E33I34F35	displayed similar activity as the Q11E33F34I35 mutant	–
B1	–	a protein with 33% of the activity of wild type factor VII
B2	–	had 70% the activity of the Q11E33 mutant
B3	–	The activity of the resulting mutant Q11E33F34135 was 60% that of the Q11E33F34 mutant
